For experiment [1], the target named is SNAP-flag-tagged GLP1R p.R380C (human) (UniProt P43220). As to the kind of experiment: AlphaScreen or HTRF.
In experiment [2] the target is SNAP-flag-tagged WT GLP1R (glucagon-like peptide 1 receptor) (human) (UniProt P43220). As to the kind of experiment: AlphaScreen or HTRF. (Alpha assays give light when donor and acceptor beads are brought close together.)

A word on the IC50: it is the concentration at which inhibition is half-maximal. For “exendin-4 (from UniProt P26349 48-87) (peptide)”, the 50% inhibitory concentration (IC50) in experiment [1] stood at 0.4 µM. This counts as sub-micromolar.
What is called pIC50 is the negative decadic logarithm of the IC50, by convention in mol/L. Read a high pIC50 as a low IC50. In experiment [2], “exendin-4 (from UniProt P26349 48-87) (peptide; other documents disagree on this pair)” registered a negative logarithm of the IC50 (pIC50) of 8.13.

(Values after publication PMC11610247.)
